In this assay the target is B-isoform of human insulin receptor (hIR-B) (human) (UniProt P06213).
Chain of UniProt P06213 (P06213 28-1382): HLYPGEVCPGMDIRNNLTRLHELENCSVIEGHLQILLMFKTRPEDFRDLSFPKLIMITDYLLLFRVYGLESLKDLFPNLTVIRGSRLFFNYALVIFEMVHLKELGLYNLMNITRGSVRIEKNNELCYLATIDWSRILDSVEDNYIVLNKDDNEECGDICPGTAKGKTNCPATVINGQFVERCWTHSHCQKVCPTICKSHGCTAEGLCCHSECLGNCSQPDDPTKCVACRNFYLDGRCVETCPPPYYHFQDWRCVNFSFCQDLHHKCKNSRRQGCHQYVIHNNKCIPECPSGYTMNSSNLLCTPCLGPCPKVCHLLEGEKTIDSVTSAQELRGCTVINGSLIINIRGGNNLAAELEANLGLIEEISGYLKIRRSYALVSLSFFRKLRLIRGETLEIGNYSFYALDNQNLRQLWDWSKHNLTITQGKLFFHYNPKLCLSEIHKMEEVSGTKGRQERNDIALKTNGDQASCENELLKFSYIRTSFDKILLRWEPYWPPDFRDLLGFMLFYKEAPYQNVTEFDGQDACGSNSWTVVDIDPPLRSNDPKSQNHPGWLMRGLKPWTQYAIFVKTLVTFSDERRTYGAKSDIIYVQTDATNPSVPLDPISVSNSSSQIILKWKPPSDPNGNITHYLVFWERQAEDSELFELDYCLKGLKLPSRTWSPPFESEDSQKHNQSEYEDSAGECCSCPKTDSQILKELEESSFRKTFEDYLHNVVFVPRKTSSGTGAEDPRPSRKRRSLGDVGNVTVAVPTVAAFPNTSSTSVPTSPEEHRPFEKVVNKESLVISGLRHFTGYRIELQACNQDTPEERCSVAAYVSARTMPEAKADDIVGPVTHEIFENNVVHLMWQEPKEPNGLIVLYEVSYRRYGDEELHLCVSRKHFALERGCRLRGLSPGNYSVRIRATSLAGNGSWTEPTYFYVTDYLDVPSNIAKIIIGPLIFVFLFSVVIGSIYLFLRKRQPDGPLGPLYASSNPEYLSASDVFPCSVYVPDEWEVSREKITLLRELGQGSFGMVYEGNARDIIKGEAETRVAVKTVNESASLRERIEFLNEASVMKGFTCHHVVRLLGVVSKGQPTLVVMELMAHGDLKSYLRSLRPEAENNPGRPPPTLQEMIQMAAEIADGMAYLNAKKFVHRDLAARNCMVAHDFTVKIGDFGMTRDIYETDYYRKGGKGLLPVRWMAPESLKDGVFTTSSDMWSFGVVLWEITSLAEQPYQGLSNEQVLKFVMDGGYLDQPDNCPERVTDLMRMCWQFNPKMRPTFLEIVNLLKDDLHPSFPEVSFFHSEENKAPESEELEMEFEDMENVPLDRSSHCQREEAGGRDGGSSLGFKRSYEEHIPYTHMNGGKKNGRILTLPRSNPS

With LY3209590 (Fc fusion), the EC50 (nM) of insulin receptor Y1158 phosphorylation, HEK293 cells overexpressing hIR-B, 0% HSA worked out at 50 nM; the EC50 (nM) of insulin receptor Y1158 phosphorylation, HEK293 cells overexpressing hIR-B, 1% HSA came to 83 nM; the Rel. potency (%) to human insulin standard in the same assay, insulin receptor Y1158 phosphorylation, 0% HSA was found to be 1.4%; the Rel. potency (%) to human insulin standard in the same assay, insulin receptor Y1158 phosphorylation, 1% HSA was found to be 1.5%.

The values are drawn from article PMC11289878.
